# Reference: the nanobody polyreactivity screen of Harvey et al. (2022)
# Assay: yeast display, Sf9 membrane polyspecificity reagent, FACS + sequencing; frameworks hold sequencing errors
# In short: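 Synthetic nanobody libraries on Saccharomyces cerevisiae BJ5465 were galactose-induced for 36–48 hours, stained 1 hour at 4 °C with 10% biotinylated, detergent-solubilized Sf9 membrane reagent and enriched on streptavidin microbeads. FACS then separated cells into low and high (top ~1%) gates by anti-HA (expression) and streptavidin (reagent binding) fluorescence. Genes were colony-PCR amplified, MiSeq 2 × 250 sequenced and CDR-length filtered. A clone's polyreactivity label is that of its gate of origin.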
row,Sequence,polyreactivity (PSR sort gate)
1,QVQLVESGGGLVQAGGSLRLSCAASGFIFRVYAMGWYRQAPGKERELVAAMSYSGGSTYYADSVKGRFTISRDNAKNTVYLQMNSLKPEDTAVYYCAAESYVSRYPYGYWGQGTQVTVSS,high polyreactivity
2,QVQLVESGGGLVQAGGSLRLSCAASGFIFRVYTMGWYRQAPGKERELVAAISYRGGRTYYADSVKGRFTISRDNAKNTVYLQMNSQKPEDTAVYYCAADRVNREFDYWGQGTQVTVSS,high polyreactivity
3,QVQLVESGGGLVQAGGSLRLSCAASGFIFRWYAKGWYRQAPGKERELVATITRSGGSTYYADSVKGRFTSSRDNAKNTVYLQMNSLKPEDTAVYYCNAGYSYKYYYWGQGTQVTVSS,high polyreactivity
4,QVQLVESGGGLVQAGGSLRLSCAASGFIFRWYAMGWYRQAPGKERELVATITGGGSTYYADSVKGRFTISRDNAKNTVYLQMNSLKPEDTAVYYCNARQIWKYSVRDDYWGQGTQVTVSS,high polyreactivity
5,QVQLVESGGGLVQAGGSLRLSCAASGFIFRWYTMGWYRQAPGKERELVAAISWRSGSTSYADSVMGRFTISRDNAKNTVYFQMNSLKPEDSAGYYCNADYSSFWTSYDYWGQGTQVTVSS,high polyreactivity
6,QVQLVESGGGLVQAGGSLRLSCAASGFIFRYNAMGWYRQAPGKERELVARITSSGGTTYYADSVKGRFTISRDNAKNTVYLQMNSLKPEDTAVYYCAITWRKYYPPYYYWGQGTQVTVSS,high polyreactivity
7,QVQLVESGGGLVQAGGSLRLSCAASGFIFRYNAMGWYRQAPGKESELVAAISSSGTTNYADSVKGRFTISRDNAKNTVYLQMNSLKPEDTAVYYCAARRSYARRFKNSMEYWGEGTQVTVSS,high polyreactivity
8,QVQLVESGGGLVQAGGSLRLSCAASGFIFRYNAMGWYRQRPGKERELVAVITSGGRTYYADSVKGRFTISRDNAKNTVYLQMNSLKPEDTAFYYCNADSRHRRNYDYWGQGTQVTVSS,high polyreactivity
9,QVQLVESGGGLVQAGGSLRLSCAASGFIFRYYALGWYRQAPGKERELVAAISWRGGTTYYADSVKGRFTISRDNAKNTVYLQMQSLKPEDTAVYYCAADWQWDLGPYIYQVEYWGQGTLVTVSS,high polyreactivity
10,QVQLVESGGGLVQAGGSLRLSCAASGFIFRYYAMGRYRPAPGKERELVAAISKRGGGTYYADSVKGRFTISRDNAKNTVYLQMNSLKPEDTAVYYCKKDGGYGTGSSREYDSWGQGTQVTVSS,high polyreactivity
11,QVQLVESGGGLVQAGGSLRLSCAASGFIFRYYAMGWYRQAPGKERELVAAINASGGRTYYADSVKGRFTISRDNARNTVYFQMNSLKPEDSAVYYCAAYRSYQTFDYWGQGTQVTVSS,high polyreactivity
12,QVQLVESGGGLVQAGGSLRLSCAASGFIFRYYAMGWYRQAPGKERELVAAISYSGGSTYYADSVKGRFTISRDTAKNTVYLQMNSLKPEDTAVYYCAAVLRTRDHPQPNYVYWGQGTQVTVSS,high polyreactivity
13,QVQLVESGGGLVQAGGSLRLSCAASGFIFRYYAMGWYRQAPGKERELVARINKSGGYTYYADSVKGRFTISRDNAKNTVYLQMNSLKPEDTAVYYCNRVRVFSVPFDYWGQGTQVTVSS,high polyreactivity
14,QVQLVESGGGLVQAGGSLRLSCAASGFIFRYYAMGWYRQAPGNERELVAAISYSGGSTYYADSVKGRFTISRDNAKNTVYLQMNSLKPEDTAVYYGAAVLRTRDHPQPNYEYWGQGTQVTVSS,high polyreactivity
15,QVQLVESGGGLVQAGGSLRLSCAASGFIFRYYARGWYRQAPGKERELVAAISSTGGSTSYADSVKGRFTISRDNAKNTVYLQLNSQKPEDTAVYDCAADYWIRRRTYGQLYRPYYYWGQGTQVTVSS,high polyreactivity
16,QVQLVESGGGLVQAGGSLRLSCAASGFIFRYYTMGWYRQAPGKERELVATITSGGSTYYADSVKGRFTISCDNAKNTVYLQMNSLKPEDTAVYYCAKVRDVLWRFNYWGQGTQVTVSS,high polyreactivity
17,QVQLVESGGGLVQAGGSLRLSCAASGFIFSAYSMGWYRPEPGKERELVAAISYSGGTTYYADSVKGRFTISRDNAKNTLYLQMNSLKPEDTAVYYCAAGVGYWGQGTQVTVSS,high polyreactivity
18,QVQLVESGGGLVQAGGSLRLSCAASGFIFSGNAMGWYILAPGKERELVAGIRSLGGTTSYADSVKGRFTISRDNAKNTVYLQMNSMKPEDTAVYYCAAGYGAEFDYWGQGTQVTVSS,low polyreactivity
19,QVQLVESGGGLVQAGGSLRLSCAASGFIFSGNAMGWYRQAPGKERELVAAISWSGTSTFYADSVKGRFTISRDNAKNTVYLQMNSLKPEDTAVYYCAAETYYSYWYRPHYDYWGQGTQVTVSS,low polyreactivity
20,QVQLVESGGGLVQAGGSLRLSCAASGFIFSGYAMGWYRQAPGKERELVAAITWSGSNTFYADSVKGRFTISRDNPKNTVYLQMNSLKPEDTAVYYCNGVSKYIRSDYYYWGQGTQVTVSS,high polyreactivity
21,QVQLVESGGGLVQAGGSLRLSCAASGFIFSGYAMGWYRQAPGKERELVASISWSGARTNYADSVKGRFTISRDNAKNTVYLQMNSLKPEDTAVYYCAAQVGRGYEVYPVYKYGYWGQGTQVTVSS,high polyreactivity
22,QVQLVESGGGLVQAGGSLRLSCAASGFIFSGYAMGWYRQAPGKEREVVATISRGGSTTYYADSVKGRFTISRDNAKNTVYLQKTSLKPEETGAYYCATVGYPYRPVYIRRPYRYNSWGQGTQVTVSS,high polyreactivity

row,Sequence,polyreactivity (PSR sort gate)
1,QVQLVESGGGLVQAGGSLRLSCAASGFIFSGYNMGWYRQAPGKERELVAAITKRGGRTYYADSVKWRFTISRDNAKNTVYLQMNSLKPEDTAVYYCNVDVKVYSDETTDGDYWGQGTQVTVSS,high polyreactivity
2,QVQLVESGGGLVQAGGSLRLSCAASGFIFSHYAMGWYRQAPGKERELVAAIRSGGTTNYADSVKGRFTISRDNAKHTVYLQMNSLKPEDTAVYYCAASSRRSWTYDYWGQGTQVTVSS,high polyreactivity
3,QVQLVESGGGLVQAGGSLRLSCAASGFIFSIYAMGWYRQAPGKERELVAAISKSGGRTYYADSVKGRFTISRDNAKNTVYLQMNSLKPEDTAVYYCAVDPYYKYDYWGQGTQVTVSS,high polyreactivity
4,QVQLVESGGGLVQAGGSLRLSCAASGFIFSNYAMGWYRQAPGKERELVAAISWSGGNTYYADSVKGRFTISRDNAKNTFYLQMNSLKPEDTAVYYCNRVKAYYRWFLPRYQYNYWGQGTQVTVSS,high polyreactivity
5,QVQLVESGGGLVQAGGSLRLSCAASGFIFSPYAMGWYRQAPGKERELVAAISSGVGTRTYYADSVKGRFTISRDNAKNNVYLQINSLKPEDTAVYYCAARIPAWRAAERGGYWGQGTQVTVSS,high polyreactivity
6,QVQLVESGGGLVQAGGSLRLSCAASGFIFSRNVMGWYRQAPGKERELVAAISRSGGSTYYADSVKGRFTISRDNAKNTVYLQMNSLKTEYTAVYYCAASRINNVYLLKGDYWGQGTQVTVSS,high polyreactivity
7,QVQLVESGGGLVQAGGSLRLSCAASGFIFSRYAMGWYRQAPGKERELVAAINLSGTSTYYADSVKGRFTISRDNAKNTVYLQMNSLKPEDTAVYYCAATSSYIYPYGYWGQGTQVTVSS,high polyreactivity
8,QVQLVESGGGLVQAGGSLRLSCAASGFIFSRYAMGWYRQAPGKERELVAAISDYGGRTYYADSVKGRFTISRDNAKNTVYLQMNSLKPEDTAVYYCAADLEGYYPYEYWGQGTKVTVSS,high polyreactivity
9,QVQLVESGGGLVQAGGSLRLSCAASGFIFSRYAMGWYRQAPGKERELVAAISRGGSTYYADYVKGRFTISRDNAKNTVYLQMNSLKPEDTAVYYCAVRQIVRYYYWGQGTQVTVSS,high polyreactivity
10,QVQLVESGGGLVQAGGSLRLSCAASGFIFSRYAMGWYRQAPGKERELVAAISSGGRTNYADSVKGRFTISRDNAKNTVYLQMNSLKPEDTAVYFCAALLRGRSGQFEYDYWGQGTQVTVSS,low polyreactivity
11,QVQLVESGGGLVQAGGSLRLSCAASGFIFSRYGMGWYRQAPGKERELVAAISRTGGSTYYADSVKGRFTISRDNAKNTVYFQMNSLKPEDTAVYYCATAYSWRNADWFAYSYDYWGQGTQVTVSS,low polyreactivity
12,QVQLVESGGGLVQAGGSLRLSCAASGFIFSRYVMGWYRQAPGKEREFVAAISSSGGSTYYADSVKGRFTISRDNAKNTVYLQMNSLKPEDTAVYYCATRLGRYYRVGFDYWGQGNQVTVSS,high polyreactivity
13,QVQLVESGGGLVQAGGSLRLSCAASGFIFSSYAMGWYRQAPGKERELVAAISWSDSSTYYADSVKGRFTISRDNSKNTVYLQMTSLKPEDTAVYYCNVEVAESYDYWGQGTQVTVSS,low polyreactivity
14,QVQLVESGGGLVQAGGSLRLSCAASGFIFSSYAMGWYRQAPGKERELVAAITRNGGSTYYADSVKGRFTISRDNAKNTVYLQMNSLKPEDTAVYYCAAPRWRGVGRFDYWGQGTQVTVSS,high polyreactivity
15,QVQLVESGGGLVQAGGSLRLSCAASGFIFSSYAMGWYRQAPGKERELVAAITVRAGRTYYADSVKGRFTISRDNATNTVYFQMNSVKAEDTAVDYCAAAYRHPYGKYVYWGQGTQVTVSS,high polyreactivity
16,QVQLVESGGGLVQAGGSLRLSCAASGFIFSSYAMGWYRQAPGKERELVASIRRRGGSTYYADSVKGRFTISRDNAKNTVYLQMNSLKPEDTAVYYCAASRVSYGTRFDYWGQGTQVTVSS,high polyreactivity
17,QVQLVESGGGLVQAGGSLRLSCAASGFIFSSYTMGWYRQAPGKERELVAAITSRGGSTYYADSVKGRLTISRDNAKNTVYLQMNSLKPEDTAVYDWNARRIPYSPYGVHEGYYWGLGTQVTVSS,high polyreactivity
18,QVQLVESGGGLVQAGGSLRLSCAASGFIFSTNAMGWYRQAPGKERELVATIRSGGSTNYADSVKGRFTISRDNAKNTVYLQMNSLKPEDTAVYYCAAEPPGSTYEGGYWGQGTQVTVSS,low polyreactivity
19,QVQLVESGGGLVQAGGSLRLSCAASGFIFSWYAMGWYRQAPGKERELVARISSSGGNTYYADSVKGRFTISRDNAKNTVYLQMNSLKPEDTAVYYCAAGYRYRYDYWGQGTQVTVSS,high polyreactivity
20,QVQLVESGGGLVQAGGSLRLSCAASGFIFSYAMGWYRQAPGKERELVAAISKSGGRTYYADSVKGRFTISRDNAKNTVYLQMNSLKPEDTAVYYCAVRDLHLSIARYNYWGQGTQVTVSS,high polyreactivity
21,QVQLVESGGGLVQAGGSLRLSCAASGFIFSYNAMGWYREAPGKERELVAAISSRGGSTYYADSVKGRFTISRDNAKNTVYLQMNSLKPEDTADYYCAVASRRVYTAPYDYWGQGTQVTVSS,high polyreactivity
